Measured values: US20220267403A1 (FRED HUTCHINSON CANCER RESEARCH CENTER, published 2022)

T1: 5T4 17-25 variant R1A (alanine-substituted) peptide on HLA-A*02:01 (human)
T1 peptide: ALARLALVL

T2: 5T4 17-25 variant R4A (alanine-substituted) peptide on HLA-A*02:01 (human)
T2 peptide: RLAALALVL

T3: DDX3Y peptide on HLA-A*02:01 (human)
T3 peptide: FLLDILGAT

T4: UTY peptide on HLA-A*02:01 (human)
T4 peptide: KAFQDVLYV

T5: 5T4 (trophoblast glycoprotein, TPBG) peptide on HLA-A*02:01 (human)
T5 peptide: RLARLALVL

B1: Clone3-6C3 (TCR, V domains shown)
Valpha: AQTVTQSQPEMSVQEAETVTLSCTYDTSESDYYLFWYKQPPSRQMILVIRQEAYKQQNATENRFSVNFQKAAKSFSLKISDSQLGDAAMYFCSSGGGADGLTFGKGTHLIIQP
Vbeta: NAGVTQTPKFRVLKTGQSMTLLCAQDMNHEYMYWYRQDPGMGLRLIHYSVGEGTTAKGEVPDGYNVSRLKKQNFLLGLESAAPSQTSVYFCASMDLAFKQYFGPGTRLTVT
B2: Clone19-5C2 (TCR, V domains shown)
Valpha: AQTVTQSQPEMSVQEAETVTLSCTYDTSESDYYLFWYKQPPSRQMILVIRQEAYKQQNATENRFSVNFQKAAKSFSLKISDSQLGDAAMYFCAYRSGSDGGSQGNLIFGKGTKLSVKP
Vbeta: ETGVTQTPRHLVMGMTNKKSLKCEQHLGHNAMYWYKQSAKKPLELMFVYSLEERVENNSVPSRFSPECPNSSHLFLHLHTLQPEDSALYLCASSQVSGYEQYFGPGTRLTVT
B3: Clone15-3F10 (TCR, V domains shown)
Valpha: AQTVTQSQPEMSVQEAETVTLSCTYDTSENNYYLFWYKQPPSRQMILVIRQEAYKQQNATENRFSVNFQKAAKSFSLKISDSQLGDTAMYFCASMYSGGGADGLTFGKGTHLIIQP
Vbeta: EAQVTQNPRYLITVTGKKLTVTCSQNMNHEYMSWYRQDPGLGLRQIYYSMNVEVTDKGDVPEGYKVSRKEKRNFPLILESPSPNQTSLYFCASSFFSNTGELFFGEGSRLTVL
B4: Clone21-7A10 (TCR, V domains shown)
Valpha: GQSLEQPSEVTAVEGAIVQINCTYQTSGFYGLSWYQQHDGGAPTFLSYNALDGLEETGRFSSFLSRSDSYGYLLLQELQMKDSASYFCAVRDDYGQNFVFGPGTRLSVLP
Vbeta: NAGVMQNPRHLVRRRGQEARLRCSPMKGHSHVYWYRQLPEEGLKFMVYLQKENIIDESGMPKERFSAEFPKEGPSILRIQQVVRGDSAAYFCASSPQGDNEQFFGPGTRLTVL
B5: Clone2-6B8 (TCR, V domains shown)
Valpha: QKEVEQNSGPLSVPEGAIASLNCTYSDRGSQSFFWYRQYSGKSPELIMFIYSNGDKEDGRFTAQLNKASQYVSLLIRDSQPSDSATYLCAVPDDAGNMLTFGGGTRLMVKP
Vbeta: DAGITQSPRYKITETGRQVTLMCHQTWSHSYMFWYRQDLGHGLRLIYYSAAADITDKGEVPDGYVVSRSKTENFPLTLESATRSQTSVYFCASSELPAGGTNEQFFGPGTRLTVL
B6: L5A synthetic peptide RLARAALVL (peptide)
peptide: RLARAALVL
notes: Alanine-substituted variant of 5T4p17
B7: R4A synthetic peptide RLAALALVL (peptide)
peptide: RLAALALVL
notes: as for B6
B8: L7A synthetic peptide RLARLAAVL (peptide)
peptide: RLARLAAVL
notes: as for B6
B9: R1A synthetic peptide ALARLALVL (peptide)
peptide: ALARLALVL
notes: as for B6
B10: V8A synthetic peptide RLARLALAL (peptide)
peptide: RLARLALAL
notes: as for B6

Target: T1, 5T4 17-25 variant R1A …
Test: killing

Binder	binding result
B1	no recognition
B2	no recognition
B3	recognises
B4	recognises
B5	recognises

Target: T2, 5T4 17-25 variant R4A …
Test: killing

Binder	binding result
B1	no recognition
B2	no recognition
B3	no recognition
B4	no recognition
B5	no recognition

Target: T3, DDX3Y peptide on HLA-A*02:01
Test: killing

Binder	binding result
B1	no recognition
B2	no recognition
B3	no recognition
B4	no recognition
B5	no recognition

Target: T4, UTY peptide on HLA-A*02:01
Test: killing

Binder	binding result
B1	no recognition
B2	no recognition
B3	no recognition
B4	no recognition
B5	no recognition

Target: T5, 5T4 (trophoblast glycoprotein, TPBG) …
Test: multimer staining

binding result	Binder
recognises	B1
recognises	B2
recognises	B3
recognises	B4
recognises	B5

Target: T6, HLA-A*0201 on the surface of T2 cells (human)
T6 construct: Class I molecule that the test peptides load in the HLA-A2 stabilization assay; also called HLA-A2
Test: HLA-A2 stabilization on T2 cells, BB7.2 staining, flow cytometry
Protocol: Aliquots of 2×10⁵ T2 cells were cultured in serum-free RPMI media supplemented with human β₂-microglobulin at 5 μg/mL plus the test peptide.

binding result	Binder
no binding	B6
binds	B7
no binding	B8
binds	B9
no binding	B10
